Data from patent US9862971B2 (BUNDESREPUBLIK DEUTSCHLAND, LETZTVERTRETEN DURCH DEN …, dated 2018).

Legend:
Experiment in all cases: cell-based or functional assay
EGF-receptor = EGF-receptor (Homo sapiens (Human), UniProt P00533)
CD46 [1] = target: T1, CD46 (human, UniProt P15529)
Human SLAM (signaling …) = target: T2, Human SLAM (signaling lymphocyte-activation molecule) (human, UniProt Q13291)
T2 sequence: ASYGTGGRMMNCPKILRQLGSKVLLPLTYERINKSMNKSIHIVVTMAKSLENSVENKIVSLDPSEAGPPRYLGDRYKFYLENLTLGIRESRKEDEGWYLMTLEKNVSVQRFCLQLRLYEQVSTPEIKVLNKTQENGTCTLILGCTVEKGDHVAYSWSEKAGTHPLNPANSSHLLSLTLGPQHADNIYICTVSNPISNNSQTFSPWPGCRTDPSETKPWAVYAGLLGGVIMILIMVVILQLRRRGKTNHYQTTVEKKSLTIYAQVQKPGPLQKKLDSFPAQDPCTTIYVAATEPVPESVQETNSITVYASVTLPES

human CD20 = human CD20 (human, UniProt P11836)
CD46 [2] = target: T1, CD46; remark: listed apart in the source

| Binder | titer [t.u./ml] of HIV-1 vector particles on A-431 cells, concentrated supernatant (EGF-receptor) [t.u./ml] | titer [t.u./ml] of HIV-1 vector particles on CHO-BC1 cells, concentrated supernatant (CD46 [1]) [t.u./ml] | titer [t.u./ml] of HIV-1 vector particles on CHO-hSLAM cells, concentrated supernatant (Human SLAM (signaling …)) [t.u./ml] | titer [t.u./ml] of HIV-1 vector particles on HT1080-CD20 cells, concentrated supernatant (human CD20) [t.u./ml] | titer [t.u./ml] of HIV-1 vector particles on HT1080 cells, concentrated supernatant (CD46 [2]) [t.u./ml] |
| --- | --- | --- | --- | --- | --- |
| HmutEGFΔ19 (other) MSRIVINREHLMIDRPYVLLAVLFVMFLSLIGLLAIAGIRLHRAAIYTAEIHKSLSTNLDVTNSIEHQVKDVLTPLFKIIGDEVGLRTPQRFTDLVKFISDKIKFLNPDREYDFRDLTWCINPPERIKLDYDQYCADVAAEELMNALVNSTLLETRTTNQFLAVSKGNCSGPTTIRGQFSNMSLSLLDLYLGRGYNVSSIVTMTSQGMYGGTYLVEKPNLSSKRSELSQLSMYRVFEVGVIRNPGLGAPVFHMTNYLEQPVSNDLSNCMVALGELKLAALCHGEDSITIPYQGSGKGVSFQLVKLGVWKSPTDMQSWVPLSTDDPVIDRLYLSSHRGVIADNQAKWAVPTTRTDDKLRMETCFQQACKGKIQALCENPEWAPLKDNRIPSYGVLSVDLSLTVELKIKIASGFGPLITHGSGMDLYKSNHNNVYWLTIPPMKNLALGVINTLEWIPRFKVSPALFTVPIKEAGGDCHAPTYLPAEVDGDVKLSSNLVILPGQDLQYVLATYDTSAVEHAVVYYVYSPSRLSSYFYPFRLPIKGVPIELQVECFTWDQKLWCRHFCVLADSESGGHITHSGMVGMGVSCTVTREDGTNAAQPAMANSDSECPLSHDGYCLHDGVCMYIEALDKYACNCVVGYIGERCQYRDLKWWELRAAARGSHHHHHH | 22000 | 0 | 160 |  |  |
| HmutscFvCD20Δ24+4A (other) MAAAANREHLMIDRPYVLLAVLFVMFLSLIGLLAIAGIRLHRAAIYTAEIHKSLSTNLDVTNSIEHQVKDVLTPLFKIIGDEVGLRTPQRFTDLVKFISDKIKFLNPDREYDFRDLTWCINPPERIKLDYDQYCADVAAEELMNALVNSTLLETRTTNQFLAVSKGNCSGPTTIRGQFSNMSLSLLDLYLGRGYNVSSIVTMTSQGMYGGTYLVEKPNLSSKRSELSQLSMYRVFEVGVIRNPGLGAPVFHMTNYLEQPVSNDLSNCMVALGELKLAALCHGEDSITIPYQGSGKGVSFQLVKLGVWKSPTDMQSWVPLSTDDPVIDRLYLSSHRGVIADNQAKWAVPTTRTDDKLRMETCFQQACKGKIQALCENPEWAPLKDNRIPSYGVLSVDLSLTVELKIKIASGFGPLITHGSGMDLYKSNHNNVYWLTIPPMKNLALGVINTLEWIPRFKVSPALFTVPIKEAGGDCHAPTYLPAEVDGDVKLSSNLVILPGQDLQYVLATYDTSAVEHAVVYYVYSPSRLSSYFYPFRLPIKGVPIELQVECFTWDQKLWCRHFCVLADSESGGHITHSGMVGMGVSCTVTREDGTNAAQPAIEGRMAQVQLVQSGAELVKPGASVKMSCKASGYTFTSYNMHWVKQTPGQGLEWIGAIYPGNGDTSYNQKFKGKATLTADKSSSTAYMQLSSLTSEDSAVYYCARAQLRPNYWYFDVWGAGTTVTVSKISGGGGSGGGGSGGGGSGGSSDIVLSQSPAILSASPGEKVTMTCRASSSVSYMHWYQQKPGSSPKPWIYATSNLASGVPARFSGSGSGTSYSLTISRVEAEDAATYYCQQWISNPPTFGAGTKLELKAAARGSHHHHHH |  |  |  | 8600 | 200 |
| HmutEGFΔ18 (other) MGSRIVINREHLMIDRPYVLLAVLFVMFLSLIGLLAIAGIRLHRAAIYTAEIHKSLSTNLDVTNSIEHQVKDVLTPLFKIIGDEVGLRTPQRFTDLVKFISDKIKFLNPDREYDFRDLTWCINPPERIKLDYDQYCADVAAEELMNALVNSTLLETRTTNQFLAVSKGNCSGPTTIRGQFSNMSLSLLDLYLGRGYNVSSIVTMTSQGMYGGTYLVEKPNLSSKRSELSQLSMYRVFEVGVIRNPGLGAPVFHMTNYLEQPVSNDLSNCMVALGELKLAALCHGEDSITIPYQGSGKGVSFQLVKLGVWKSPTDMQSWVPLSTDDPVIDRLYLSSHRGVIADNQAKWAVPTTRTDDKLRMETCFQQACKGKIQALCENPEWAPLKDNRIPSYGVLSVDLSLTVELKIKIASGFGPLITHGSGMDLYKSNHNNVYWLTIPPMKNLALGVINTLEWIPRFKVSPALFTVPIKEAGGDCHAPTYLPAEVDGDVKLSSNLVILPGQDLQYVLATYDTSAVEHAVVYYVYSPSRLSSYFYPFRLPIKGVPIELQVECFTWDQKLWCRHFCVLADSESGGHITHSGMVGMGVSCTVTREDGTNAAQPAMANSDSECPLSHDGYCLHDGVCMYIEALDKYACNCVVGYIGERCQYRDLKWWELRAAARGSHHHHHH | 270000 | 0 | 280 |  |  |
| HmutscFvCD20Δ18 (other) MGSRIVINREHLMIDRPYVLLAVLFVMFLSLIGLLAIAGIRLHRAAIYTAEIHKSLSTNLDVTNSIEHQVKDVLTPLFKIIGDEVGLRTPQRFTDLVKFISDKIKFLNPDREYDFRDLTWCINPPERIKLDYDQYCADVAAEELMNALVNSTLLETRTTNQFLAVSKGNCSGPTTIRGQFSNMSLSLLDLYLGRGYNVSSIVTMTSQGMYGGTYLVEKPNLSSKRSELSQLSMYRVFEVGVIRNPGLGAPVFHMTNYLEQPVSNDLSNCMVALGELKLAALCHGEDSITIPYQGSGKGVSFQLVKLGVWKSPTDMQSWVPLSTDDPVIDRLYLSSHRGVIADNQAKWAVPTTRTDDKLRMETCFQQACKGKIQALCENPEWAPLKDNRIPSYGVLSVDLSLTVELKIKIASGFGPLITHGSGMDLYKSNHNNVYWLTIPPMKNLALGVINTLEWIPRFKVSPALFTVPIKEAGGDCHAPTYLPAEVDGDVKLSSNLVILPGQDLQYVLATYDTSAVEHAVVYYVYSPSRLSSYFYPFRLPIKGVPIELQVECFTWDQKLWCRHFCVLADSESGGHITHSGMVGMGVSCTVTREDGTNAAQPAIEGRMAQVQLVQSGAELVKPGASVKMSCKASGYTFTSYNMHWVKQTPGQGLEWIGAIYPGNGDTSYNQKFKGKATLTADKSSSTAYMQLSSLTSEDSAVYYCARAQLRPNYWYFDVWGAGTTVTVSKISGGGGSGGGGSGGGGSGGSSDIVLSQSPAILSASPGEKVTMTCRASSSVSYMHWYQQKPGSSPKPWIYATSNLASGVPARFSGSGSGTSYSLTISRVEAEDAATYYCQQWISNPPTFGAGTKLELKAAARGSHHHHHH |  |  |  | 200000 | 980 |
| HmutEGFΔ24+4A (other) MAAAANREHLMIDRPYVLLAVLFVMFLSLIGLLAIAGIRLHRAAIYTAEIHKSLSTNLDVTNSIEHQVKDVLTPLFKIIGDEVGLRTPQRFTDLVKFISDKIKFLNPDREYDFRDLTWCINPPERIKLDYDQYCADVAAEELMNALVNSTLLETRTTNQFLAVSKGNCSGPTTIRGQFSNMSLSLLDLYLGRGYNVSSIVTMTSQGMYGGTYLVEKPNLSSKRSELSQLSMYRVFEVGVIRNPGLGAPVFHMTNYLEQPVSNDLSNCMVALGELKLAALCHGEDSITIPYQGSGKGVSFQLVKLGVWKSPTDMQSWVPLSTDDPVIDRLYLSSHRGVIADNQAKWAVPTTRTDDKLRMETCFQQACKGKIQALCENPEWAPLKDNRIPSYGVLSVDLSLTVELKIKIASGFGPLITHGSGMDLYKSNHNNVYWLTIPPMKNLALGVINTLEWIPRFKVSPALFTVPIKEAGGDCHAPTYLPAEVDGDVKLSSNLVILPGQDLQYVLATYDTSAVEHAVVYYVYSPSRLSSYFYPFRLPIKGVPIELQVECFTWDQKLWCRHFCVLADSESGGHITHSGMVGMGVSCTVTREDGTNAAQPAMANSDSECPLSHDGYCLHDGVCMYIEALDKYACNCVVGYIGERCQYRDLKWWELRAAARGSHHHHHH | 58000 | 800 | 960 |  |  |
